Experiments:
[1] = molecular target: T1, human α-thrombin (recombinant) (human, UniProt P00734 328-363; P00734 364-622); experiment: thrombin amidolytic assay with S2238, Morrison tight-binding fit, competitive
Experimental: Data were fitted to the Morrison tight binding equation using GraphPad Prizm software. Each data point is the mean±S.D. of at least three experiments.
Each data point is the mean±S.D. of at least three independent experiments. […] Each data point is the mean±S.D. of at least three independent experiments. […] Each data point is the mean±S.D. of at least three experiments.
Thrombin amidolytic activity assays for all peptides were performed in 96-wells microtiter plates in 50 mM Tris buffer (pH 7.4) containing 100 mM NaCl and 1 mg/ml bovine serum albumin.

[2] = molecular target: T1, human α-thrombin (recombinant); experiment: thrombin amidolytic assay with S2238; column headed Affinity (nM)
Experimental: Each data point is the mean±S.D. of at least three experiments. […] Data were fitted to the Morrison tight binding equation using GraphPad Prizm software. Each data point is the mean±S.D. of at least three experiments.
Thrombin amidolytic activity assays for all peptides were performed in 96-wells microtiter plates in 50 mM Tris buffer (pH 7.4) containing 100 mM NaCl and 1 mg/ml bovine serum albumin. […] Dose-response curves were fitted using the GraphPad Prizm software (San Diego, Calif., USA) to calculate IC50 values and Hill coefficients. To measure the inhibitory constants, different concentrations of S2238 were used and the residual velocities were determined using the Morrison's tight binding equation.

[3] = molecular target: T1, human α-thrombin (recombinant); experiment: cell-based or functional assay
[4] = molecular target: T1, human α-thrombin (recombinant); experiment: cell-based or functional assay; remark: listed apart in the source
bovine trypsin = bovine trypsin (bovine, UniProt P00760 24-246); experiment: cell-based or functional assay
plasmin = experiment: cell-based or functional assay
fIXa = experiment: cell-based or functional assay
urokinase = experiment: cell-based or functional assay
fXIa = experiment: cell-based or functional assay
tPA = experiment: cell-based or functional assay
fVIIa = experiment: cell-based or functional assay
fXIIa = experiment: cell-based or functional assay
fXa = experiment: cell-based or functional assay
kallikrein = experiment: cell-based or functional assay
APC = experiment: cell-based or functional assay
[5] = molecular target: T1, human α-thrombin (recombinant); experiment: cell-based or functional assay; remark: listed apart in the source
bovine chymotrypsin = bovine chymotrypsin (bovine, UniProt P00766 1-245); experiment: cell-based or functional assay

Chain of fXa (P00742 whole entry): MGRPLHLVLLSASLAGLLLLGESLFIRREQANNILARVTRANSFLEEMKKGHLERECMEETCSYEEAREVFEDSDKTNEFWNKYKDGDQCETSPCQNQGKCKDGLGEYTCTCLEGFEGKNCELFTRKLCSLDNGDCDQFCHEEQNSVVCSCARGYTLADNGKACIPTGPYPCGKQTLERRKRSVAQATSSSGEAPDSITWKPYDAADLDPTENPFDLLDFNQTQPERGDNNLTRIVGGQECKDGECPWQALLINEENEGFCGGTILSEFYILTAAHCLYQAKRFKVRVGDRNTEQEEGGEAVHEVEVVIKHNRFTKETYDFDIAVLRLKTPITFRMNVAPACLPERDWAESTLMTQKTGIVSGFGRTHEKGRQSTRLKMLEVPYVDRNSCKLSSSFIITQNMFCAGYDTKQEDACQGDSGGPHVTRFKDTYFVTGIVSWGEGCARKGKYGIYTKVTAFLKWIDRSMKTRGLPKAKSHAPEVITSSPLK
Chain of bovine trypsin (P00760 24-246): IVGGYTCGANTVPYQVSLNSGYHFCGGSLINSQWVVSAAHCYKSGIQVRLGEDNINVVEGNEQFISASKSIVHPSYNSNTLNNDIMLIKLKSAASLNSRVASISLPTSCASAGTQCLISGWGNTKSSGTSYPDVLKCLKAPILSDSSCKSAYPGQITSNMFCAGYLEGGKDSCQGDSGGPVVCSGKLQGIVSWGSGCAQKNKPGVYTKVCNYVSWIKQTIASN
Chain of fVIIa (P08709 whole entry): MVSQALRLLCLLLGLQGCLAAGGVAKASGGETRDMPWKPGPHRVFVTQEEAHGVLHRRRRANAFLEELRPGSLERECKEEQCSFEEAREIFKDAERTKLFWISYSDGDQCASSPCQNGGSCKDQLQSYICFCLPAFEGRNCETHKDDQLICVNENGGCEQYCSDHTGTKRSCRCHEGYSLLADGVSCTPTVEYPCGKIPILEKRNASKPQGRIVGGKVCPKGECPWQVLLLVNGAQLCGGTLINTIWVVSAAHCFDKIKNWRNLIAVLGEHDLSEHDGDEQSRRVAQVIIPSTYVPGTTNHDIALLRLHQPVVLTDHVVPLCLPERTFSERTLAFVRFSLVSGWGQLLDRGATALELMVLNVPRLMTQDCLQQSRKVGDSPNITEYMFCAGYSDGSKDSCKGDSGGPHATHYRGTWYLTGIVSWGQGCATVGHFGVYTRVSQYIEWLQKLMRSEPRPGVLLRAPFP

B1: avathrin (Amblyomma variegatum thrombin inhibitor) (peptide)
peptide: SGGHQTAVPKISKQGLGGDFEEIPSDEIIE
notes: Synthetic 30-residue peptide; one repeat of precursor protein BAD29729
Ki [1]: 0.545 nM | Ki [2]: 0.545 nM | IC50, inhibition of thrombin amidolytic activity (S2238) [3]: 6.95 nM | IC50, inhibition of thrombin amidolytic activity [4]: 6.95 nM | percent inhibition of amidolytic activity at 100 µM avathrin (bovine trypsin): < 30% | percent inhibition of amidolytic activity at 100 µM avathrin (plasmin): < 30% | percent inhibition of amidolytic activity at 100 µM avathrin (fIXa): < 30% | percent inhibition of amidolytic activity at 100 µM avathrin (urokinase): < 30% | percent inhibition of amidolytic activity at 100 µM avathrin (fXIa): < 30% | percent inhibition of amidolytic activity at 100 µM avathrin (tPA): < 30% | percent inhibition of amidolytic activity at 100 µM avathrin (fVIIa): < 30% | percent inhibition of amidolytic activity at 100 µM avathrin (fXIIa): < 30% | percent inhibition of amidolytic activity at 100 µM avathrin (fXa): < 30% | percent inhibition of amidolytic activity at 100 µM avathrin (kallikrein): < 30% | percent inhibition of amidolytic activity at 100 µM avathrin (APC): < 30% | IC50, inhibition of the amidolytic activity of clot-bound thrombin (S2238) [5]: 1.74 µM | IC50, inhibition of thrombin amidolytic activity, 10 min pre-incubation [5]: 4.86 nM | percent of thrombin amidolytic activity inhibited at 24 h of incubation (avathrin in about 30-fold excess) [5]: > 45% | percent inhibition of amidolytic activity at 100 µM avathrin (bovine chymotrypsin): < 30%

From US20190002511A1 (NATIONAL UNIVERSITY OF SINGAPORE, published 2019)
